Results published in patent US11160869B2 (priority 2019, dated 2021).

Columns and labels:
plasma cytokines, IL-1Ra = test: MSD 10-plex proinflammatory panel and plasma IL-1Ra immunoassay, oxazolone dose-response; design: species or system mice; conditions: mouse, in vivo
Text: Plasma cytokines were quantified using the V-plex Proinflammatory Panel 1 Mouse Kit. Plasma IL-1Ra was quantitated by sandwich immunoassay using an antibody pair from the Mouse IL-1Ra/IL-1F3 DuoSet ELISA (R&D Systems #DY480), Streptavidin SULFO-TAG Labeled (MSD #R32AD-1), Multi-Array 96 Plate Pack, SECTOR Plate MSD #L15XA-3 and Read Buffer T (4×) (MSD #R92TC-2). Samples were read on the QuickPlex SQ 120 plate reader (Meso Scale Discovery, Rockville, Md.).

[1] = Phase 1a single ascending dose in healthy male volunteers; format: in vivo, human
Procedure: In part B of the study, early data was gathered on the safety and tolerability, pharmacokinetics, pharmacodynamics and early clinical response following multiple ascending doses of the IL-10 delivery construct in Ulcerative Colitis (UC) patients (Part B).
Part A consisted of a single-ascending dose (SAD) escalation in healthy male volunteers. Six cohorts consisting of orally administered single ascending doses were conducted. At each dose level, 6 subjects were enrolled, randomized 2:4 to receive a single dose of placebo or the IL-10 delivery construct on day 1. The doses selected were 1 mg, 3 mg, 10 mg, 30 mg, 60 mg, and 120 mg.

[2] = tested on: IFNγ, IL-1β, IL-2, IL-6, IL-8, TNFα; test: Single oral capsule dose in NHP: plasma proinflammatory cytokines; format: in vivo, Macaca fascicularis
Procedure: The panel of cytokines (IFNγ, IL-1β, IL-2, IL-6, and IL-8) was evaluated using a multiplex kit available from MSD. The assays in this panel were sandwich immunoassays. The MSD plate came precoated with capture antibodies on independent and pre-defined spots, and samples were quantitated against an 8-point standard curve prepared using a mixture of the cytokines (Proinflammatory Panel 1 (human) Calibrator Blend) from MSD. The standards included 0 pg/mL and these concentration ranges: IFNγ (0.37-1500 pg/mL), IL-1β ([…]), IL-2 (0.36-1490 pg/mL), IL-6 (0.18-721 pg/mL) and IL-8 (0.14-553 pg/mL).
The MSD plate (pre-coated with capture antibodies) was washed 3 times with PBST before use. […] Following a wash step, 2×MSD Read buffer was added to the wells of the plate, and the plate read using the MSD Sector Imager 600 plate reader. […]
The purpose of the TNFα immunoassay was to quantify NHP TNFα concentration in plasma. […] Samples were quantitated using an 8-point standard curve prepared from a human TNFα calibrator that ranges in concentration from 5.6-4052 pg/mL and includes 0 pg/mL.
The biotinylated anti-NHP TNFα capture antibody was added to a MSD Small Spot Streptavidin plate and incubated for an hour at RT with shaking. […] Following a wash step, 2×MSD Read buffer was added to the wells of the plate, and the plate read using the MSD Sector Imager 600 plate reader. […]

STAT3 = STAT3 phosphorylation in J774.2 macrophage cells
[3] = tested on: growth factors, chemokines and cytokines; format: in vivo, mice
[4] = Oral gavage 10 mg/kg in non-inflamed mice: hIL-10 in serum and tissue, serum IL-1Ra; format: in vivo
IL-1Ra = test: Single oral capsule dose in NHP: plasma IL-1Ra; format: in vivo, Macaca fascicularis
Procedure: The purpose of the IL-1Ra assay was to measure endogenous IL-1Ra in NHP plasma. The antibody pair in this sandwich immunoassay reacted with both human and NHP IL-1Ra. Samples were quantitated using an 8-point standard curve prepared from a human IL-1Ra calibrator (ranging from 5.5-4021 pg/mL, plus 0 pg/mL). Biotinylated anti-NHP IL-1Ra capture antibody was added to a MSD Small Spot Streptavidin plate and incubated for an hour at RT with shaking. Controls that represent low ([…]), mid ([…]) and high concentrations (3245 pg/mL) were prepared in pooled plasma, Standards (Calibrator 9 Blend) were prepared in Diluent 43 (MSD Cat No R50AG), and samples diluted 10 fold in Diluent 43. Standards, controls and diluted samples were added to the assay plate, and the plate incubated for 2 hours at room temperature with shaking. The plate was washed 3 times with PBST, and 1× SULFO TAG anti-IL-1Ra Antibody added to the plate. The plate was incubated for 1 hour at room temperature with shaking. Following a wash step, 2×MSD Read buffer was added to the wells of the plate, and the plate read using the MSD Sector Imager 600 plate reader. The lower limit of detection of each analyte is defined as 2.5 standard deviation above background.
IL-10 delivery construct dosing at multiple fixed doses in non-naïve adult male Macaca fascicularis was conducted by Valley Biosystems (West Sacramento, Calif.). […] Dosing groups are described in TABLE 45.

[5] = Evaluation of chromatography modes (CEX, HIC): protein stability; format: physicochemical
Procedure: Several modes of chromatography were evaluated during process development.

human SMI-100 monolayers = test: Transport across polarized human small intestinal cell monolayers (SMI-100), western blot; conditions: apical to basal, 2 hr

B1: IL-10 delivery construct: recombinant homodimeric fusion protein: N-terminal methionine, cholix386 domain, polyGlySer spacer, recombinant human IL-10 (protein)
chain: MVEEALNIFDECRSPCSLTPEPGKPIQSKLSIPSDVVLDEGVLYYSMTINDEQNDIKDEDKGESIITIGEFATVRATRHYVNQDAPFGVIHLDITTENGTKTYSYNRKEGEFAINWLVPIGEDSPASIKISVDELDQQRNIIEVPKLYSIDLDNQTLEQWKTQGNVSFSVTRPEHNIAISWPSVSYKAAQKEGSRHKRWAHWHTGLALCWLVPMDAIYNYITQQNCTLGDNWFGGSYETVAGTPKVITVKQGIEQKPVEQRIHFSKGNAMSALAAHRVCGVPLETLARSRKPRDLTDDLSCAYQAQNIVSLFVATRILFSHLDSVFTLNLDEQEPEVAERLSDLRRINENNPGMVTQVLTVARQIYNDYVTHHPGLTPEQTSAGAQAGGGGSGGGGSGGGGSPGQGTQSENSCTHFPGNLPNMLRDLRDAFSRVKTFFQMKDQLDNLLLKESLLEDFKGYLGCQALSEMIQFYLEEVMPQAENQDPDIKAHVNSLGENLKTLRLRLRRCHRFLPCENKSKAVEQVKNAFNKLQEKGIYKAMSEFDIFINYIEAYMTMKIRN
modifications: homodimer
plasma cytokines, MSD 10-plex, vs Vehicle (plasma cytokines, IL-1Ra): no significant differences
IL-1Ra induction at high doses ([1]; 60 and 120 mg): loss of immunomodulatory activity
drug in blood ([1]; all doses (1-120 mg)): no drug was detected in the blood
adverse events in 24 active subjects ([1]; all mild, self-limiting): 2
IL-1Ra expression ([1]; single dose): able to induce IL-1Ra expression
safety and tolerability ([1]; single oral doses 1-120 mg): safe and well tolerated
plasma IFNγ, IL-1β, IL-2, IL-8, IL-6 ([2]; 1, 4, 20.5, 82 mg oral capsules): not associated with any consistent trends
plasma TNFα ([2]; all samples): below the limit of detection
amplitude of pSTAT3/total STAT3 (STAT3): ~1.47%
EC50 (STAT3; read-out: EC50, phosphorylation of STAT3, 20 min stimulation): 0.264 nM
plasma TGF-β relative to Vehicle ([3]; 3.0 mg/kg): reduced
production of IL-12 and IL-17 ([3]; 9.0 mg/kg): prevented
plasma MCSF ([3]; highest dose (9 mg/kg)): reduced
oxazolone-induced changes in LIX, LIF, IP10 ([3]; mouse, in vivo): mitigated
plasma IL-3, IL-4 (9.0 mg/kg), IL-28 (3.0 and 9.0 mg/kg), IL-31 (0.3 mg/kg) ([3]; mouse, in vivo): to near-base line levels
plasma MIP1α ([3]; mouse, in vivo): trend towards a reduction
oxazolone-induced increase in plasma GCSF/CSF3 ([3]; prophylactic pre-treatment): attenuated
plasma IL-13 and IL-15 ([3]; vs Vehicle): trend towards an IL-10 delivery construct-mediated decrease
onset of IL-1Ra induction ([4]; 10 mg/kg): 2.5-4 h post oral gavage
hIL-10 in small intestinal lysates relative to colonic lysates ([4]; 10 mg/kg oral gavage): ~10 fold higher
serum IL-1Ra levels ([4]; 10 mg/kg oral gavage, 4 h): significantly increased
plasma IL-1Ra Cmax (IL-1Ra; 82 mg, oral): 26,367 pg/mL
time of plasma IL-1Ra Cmax (IL-1Ra; 82 mg, oral): 3 hours post-dose
time by which plasma IL-1Ra returned to baseline (IL-1Ra; all dose groups): ≤ 24 h
plasma IL-1Ra and IFN-γ after oral enteric-coated capsules (IL-1Ra; compared with intravenous administration): increased IL-1Ra without significant induction of IFN-γ
behaviour at relatively low pH (cation exchange) [5]: precipitate at a pH below the pI of the target construct (pH 5.5)
behaviour in high salt (hydrophobic interaction chromatography) [5]: unstable in the high salt
transport across monolayers relative to rhIL-10 (human SMI-100 monolayers): to a greater extent
